Test results from paper PMC3534962.

B1: phosphofructokinase 1 (PFK1): OGT overexpression (protein)
parent chain: MAAVDLEKLRASGAGKAIGVLTSGGDAQGMNAAVRAVTRMGIYVGAKVFLIYEGYEGLVEGGENIKQANWLSVSNIIQLGGTIIGSARCKAFTTREGRRAAAYNLVQHGITNLCVIGGDGSLTGANIFRSEWGSLLEELVAEGKISETTARTYSHLNIAGLVGSIDNDFCGTDMTIGTDSALHRIMEVIDAITTTAQSHQRTFVLEVMGRHCGYLALVSALASGADWLFIPEAPPEDGWENFMCERLGETRSRGSRLNIIIIAEGAIDRNGKPISSSYVKDLVVQRLGFDTRVTVLGHVQRGGTPSAFDRILSSKMGMEAVMALLEATPDTPACVVTLSGNQSVRLPLMECVQMTKEVQKAMDDKRFDEATQLRGGSFENNWNIYKLLAHQKPPKEKSNFSLAILNVGAPAAGMNAAVRSAVRTGISHGHTVYVVHDGFEGLAKGQVQEVGWHDVAGWLGRGGSMLGTKRTLPKGQLESIVENIRIYGIHALLVVGGFEAYEGVLQLVEARGRYEELCIVMCVIPATISNNVPGTDFSLGSDTAVNAAMESCDRIKQSASGTKRRVFIVETMGGYCGYLATVTGIAVGADAAYVFEDPFNIHDLKVNVEHMTEKMKTDIQRGLVLRNEKCHDYYTTEFLYNLYSSEGKGVFDCRTNVLGHLQQGGAPTPFDRNYGTKLGVKAMLWLSEKLREVYRKGRVFANAPDSACVIGLKKKAVAFSPVTELKKDTDFEHRMPREQWWLSLRLMLKMLAQYRISMAAYVSGELEHVTRRTLSMDKGF
B2: phosphofructokinase 1 (PFK1): S529A (protein)
parent chain: B1 parent chain
B3: phosphofructokinase 1 (PFK1): PUGNAc (protein)
parent chain: B1 parent chain

Key:
[1] = co-immunoprecipitation with Flag-PFK1; settings: glycan gained; control: WT Flag-PFK1 without OGT overexpression
[2] = native gel electrophoresis of immunopurified Flag-PFK1; settings: glycan gained; control: Flag-PFK1 from untreated 293T cells
[3] = colorimetric NADPH assay; settings: glycan lost; control: WT PFK1 H1299 knock-in cells
[4] = GSH level under hypoxic conditions; settings: glycan lost; control: WT PFK1 H1299 knock-in cells, hypoxia
[5] = [1,2-13C]-glucose labelling, LC-MS; settings: glycan lost; control: WT PFK1 H1299 knock-in cells
[6] = NADPH level under hypoxic conditions; settings: glycan lost; control: WT PFK1 H1299 knock-in cells, hypoxia
[7] = monochlorobimane fluorimetric GSH assay; settings: glycan lost; control: WT PFK1 H1299 knock-in cells
[8] = 14CO2 release from [1-14C]- vs [6-14C]-glucose; settings: glycan lost; control: WT PFK1 H1299 knock-in cells
[9] = co-immunoprecipitation after OGT overexpression; settings: glycan lost; control: WT Flag-PFK1
[10] = proliferation with and without OGT overexpression; settings: glycan lost; control: WT PFK1 H1299 knock-in cells, hypoxia
[11] = glycolytic rate with and without OGT overexpression; settings: glycan lost; control: WT PFK1 H1299 knock-in cells
[12] = lactate production with and without OGT overexpression; settings: glycan lost; control: WT PFK1 H1299 knock-in cells
[13] = untargeted flow-injection mass spectrometry metabolite profiling; settings: glycan lost; control: WT PFK1 H1299 knock-in cells

Row | Protein | oligomerisation [1] | oligomerisation [2] | other: OGT-induced increase in NADPH, fold_change [3] | other: cellular GSH level [4] | other: OGT-induced increase in PPP flux, fold_change [5] | other: cellular NADPH level [6] | other: OGT-induced increase in GSH, fold_change [7] | other: OGT-induced increase in PPP flux [8] | other: OGT-induced loss of subunit co-immunoprecipitation [9] | other: OGT-induced increase in proliferation [10] | other: OGT-induced decrease in glycolytic rate, other: percent decrease [11] | other: OGT-induced decrease in lactate production, other: percent decrease [12] | other: steady-state metabolite concentrations [13]
1 | B1 | decreases | decreases |  |  |  |  |  |  |  |  |  |  | 
2 | B2 |  |  | abolishes | decreases | abolishes | decreases | decreases | abolishes | abolishes | abolishes | abolishes | abolishes | decreases
3 | B3 |  | decreases |  |  |  |  |  |  |  |  |  |  | 
